Values joined by “and” are separate entries in the source; they are usually repeats but may differ in a detail not shown here. Equal entries are not always repeated.
Molecular target: M144 mutant NS1A protein (L-to-A substitution at position 144) (influenza A/Udorn/72 virus) (UniProt P03495)

With “GST-F2F3 (GST fusion of CPSF30 amino acids 61-121, second and third zinc fingers)” the percent of wild-type binding (% of wild-type binding) was 5 and 10.
